Laboratory results as given in the supplement of paper PMC11246515.
± gives the standard deviation of the averaged measurements.

Assay: total protein half-life in vivo (active degradation + dilution); higher = more stable protein
[1] = E. coli NCM3722 delta-clpP delta-lon delta-hslV, growth: N-lim chemostat, doubling time 6 h
[2] = E. coli NCM3722 delta-clpP, growth: N-lim chemostat, doubling time 6 h
[3] = E. coli NCM3722 delta-smpB, growth: N-lim chemostat, doubling time 6 h
[4] = wild type E. coli NCM3722, growth: C-lim chemostat, doubling time 3 h
[5] = wild type E. coli NCM3722, growth: C-lim chemostat, doubling time 6 h
[6] = wild type E. coli NCM3722, growth: C-lim chemostat, doubling time 12 h
[7] = wild type E. coli NCM3722, growth: N-lim chemostat, doubling time 6 h
[8] = wild type E. coli NCM3722, growth: N-lim chemostat, doubling time 12 h
[9] = wild type E. coli NCM3722, growth: P-lim chemostat, doubling time 6 h
[10] = wild type E. coli NCM3722, growth: P-lim chemostat, doubling time 12 h
[11] = E. coli NCM3722 delta-hslV, growth: N-lim chemostat, doubling time 6 h
[12] = E. coli NCM3722 delta-lon, growth: N-lim chemostat, doubling time 6 h

Sequence	total protein half-life in vivo [1]	total protein half-life in vivo [2]	total protein half-life in vivo [3]	total protein half-life in vivo [4]	total protein half-life in vivo [5]	total protein half-life in vivo [6]	total protein half-life in vivo [7]	total protein half-life in vivo [8]	total protein half-life in vivo [9]	total protein half-life in vivo [10]	total protein half-life in vivo [11]	total protein half-life in vivo [12]
MMITLRKLPLAVAVAAGVMSAQAMAVDFHGYARSGIGWTGSGGEQQCFQTTGAQSKYRLGNECETYAELKLGQEVWKEGDKSFYFDTNVAYSVAQQNDWEATDPAFREANVQGKNLIEWLPGSTIWAGKRFYQRHDVHMIDFYYWDISGPGAGLENIDVGFGKLSLAATRSSEAGGSSSFASNNIYDYTNETANDVFDVRLAQMEINPGGTLELGVDYGRANLRDNYRLVDGASKDGWLFTAEHTQSVLKGFNKFVVQYATDSMTSQGKGLSQGSGVAFDNEKFAYNINNNGHMLRILDHGAISMGDNWDMMYVGMYQDINWDNDNGTKWWTVGIRPMYKWTPIMSTVMEIGYDNVESQRTGDKNNQYKITLAQQWQAGDSIWSRPAIRVFATYAKWDEKWGYDYTGNADNNANFGKAVPADFNGGSFGRGDSDEWTFGAQMEIWW	6.61 h	> 8 h	6.71 ± 0.23 h	3.38 ± 0.6 h	6.85 ± 1.6 h	> 16 h	> 8 h	> 16 h	7.548 ± 0.042 h	> 16 h	–	–
MRFYRPLGRISALTFDLDDTLYDNRPVILRTEREALTFVQNYHPALRSFQNEDLQRLRQAVREAEPEIYHDVTRWRFRSIEQAMLDAGLSAEEASAGAHAAMINFAKWRSRIDVPQQTHDTLKQLAKKWPLVAITNGNAQPELFGLGDYFEFVLRAGPHGRSKPFSDMYFLAAEKLNVPIGEILHVGDDLTTDVGGAIRSGMQACWIRPENGDLMQTWDSRLLPHLEISRLASLTSLI [P0ADP0]	5.24 ± 0.7 h	4.56 ± 0.69 h	3.76 ± 0.16 h	–	5.75 ± 0.33 h	10.1 ± 1.4 h	3.83 ± 0.34 h	6.7 h	5.87 ± 0.57 h	11.6 ± 0.078 h	3.79 ± 0.05 h	4.87 ± 0.35 h
MLNPIVRKFQYGQHTVTLETGMMARQATAAVMVSMDDTAVFVTVVGQKKAKPGQDFFPLTVNYQERTYAAGRIPGSFFRREGRPSEGETLIARLIDRPIRPLFPEGFVNEVQVIATVVSVNPQVNPDIVAMIGASAALSLSGIPFNGPIGAARVGYINDQYVLNPTQDELKESKLDLVVAGTEAAVLMVESEAQLLSEDQMLGAVVFGHEQQQVVIQNINELVKEAGKPRWDWQPEPVNEALNARVAALAEARLSDAYRITDKQERYAQVDVIKSETIATLLAEDETLDENELGEILHAIEKNVVRSRVLAGEPRIDGREKDMIRGLDVRTGVLPRTHGSALFTRGETQALVTATLGTARDAQVLDELMGERTDTFLFHYNFPPYSVGETGMVGSPKRREIGHGRLAKRGVLAVMPDMDKFPYTVRVVSEITESNGSSSMASVCGASLALMDAGVPIKAAVAGIAMGLVKEGDNYVVLSDILGDEDHLGDMDFKVAGSRDGISALQMDIKIEGITKEIMQVALNQAKGARLHILGVMEQAINAPRGDISEFAPRIHTIKINPDKIKDVIGKGGSVIRALTEETGTTIEIEDDGTVKIAATDGEKAKHAIRRIEEITAEIEVGRVYTGKVTRIVDFGAFVAIGGGKEGLVHISQIADKRVEKVTDYLQMGQEVPVKVLEVDRQGRIRLSIKEATEQSQPAAAPEAPAAEQGE	6.65 ± 0.71 h	6.67 ± 0.63 h	5.58 ± 0.41 h	3.25 ± 0.055 h	6.31 ± 0.21 h	11.5 ± 0.16 h	5.78 ± 0.26 h	11.8 ± 0.57 h	6.05 ± 0.14 h	12.4 ± 1.5 h	5.92 ± 0.65 h	6.01 ± 0.18 h
MKRLQAFKFQLRPGGQQECEMRRFAGACRFVFNRALARQNENHEAGNKYIPYGKMASWLVEWKNATETQWLKDSPSQPLQQSLKDLERAYKNFFRKRAAFPRFKKRGQNDAFRYPQGVKLDQENSRIFLPKLGWMRYRNSRQVTGVVKNVTVSQSCGKWYISIQTESEVSTPVHPSASMVGLDAGVAKLATLSDGTVFEPVNSFQKNQKKLARLQRQLSRKVKFSNNWQKQKRKIQRLHSCIANIRRDYLHKVTTAVSKNHAMIVIEDLKVSNMSKSAAGTVSQPGRNVRAKSGLNRSILDQGWYEMRRQLAYKQLWRGGQVLAVPPAYTSQRCAYCGHTAKENRLSQSKFRCQVCGYTANADVNGARNILAAGHAVLACGEMVQSGRPLKQEPTEMIQATA	5.63 h	–	–	–	6.1 ± 0.35 h	10.6 h	–	–	–	> 16 h	–	3.54 h
MPSAHSVKLRPLEREDLRYVHQLDNNASVMRYWFEEPYEAFVELSDLYDKHIHDQSERRFVVECDGEKAGLVELVEINHVHRRAEFQIIISPEYQGKGLATRAAKLAMDYGFTVLNLYKLYLIVDKENEKAIHIYRKLGFSVEGELMHEFFINGQYRNAIRMCIFQHQYLAEHKTPGQTLLKPTAQ [P0A951]	5.494 ± 0.021 h	6.01 ± 1.7 h	5.16 ± 0.071 h	2.7 ± 0.18 h	5.17 ± 0.15 h	10.5 ± 0.81 h	4.92 ± 0.18 h	9.78 ± 1.9 h	5.06 ± 0.2 h	11.6 ± 0.61 h	5.04 ± 1.1 h	–
MRYRIFLLFFFALLPTSLVWAAPAQRAFSDWQVTCNNQNFCVARNTGDHNGLVMTLSRSAGAHTDAVLRIERGGLKSPEASEGEIAPRLLLDGEPLALSGDKWRISPWLLVTDDTATITAFLQMIQEGKAITLRDGDQTISLSGLKAALLFIDAQQKRVGSETAWIKKGDEPPLSVPPAPALKEVAVVNPTPTPLSLEERNDLLDYGNWRMNGLRCSLDPLRREVNVTALTDDKALMMISCEAGAYNTIDLAWIVSRKKPLASRPVRLRLPFNNGQETNELELMNATFDEKSRELVTLAKGRGLSDCGIQARWRFDGQRFRLVRYAAEPTCDNWHGPDAWPTLWITR	4.79 ± 0.75 h	5.182 ± 0.02 h	5.55 ± 0.54 h	3.44 ± 0.45 h	5.86 ± 1.1 h	10.4 ± 2 h	5.2 ± 0.56 h	12.9 ± 3.8 h	4.81 ± 0.49 h	9.92 ± 0.41 h	6.05 ± 0.37 h	5.51 ± 0.2 h
